Measured values published in paper PMC10397247.
Each block holds one binder with its values, some of them ahead of it.

What was measured:
Experiment in all cases: two-hybrid library CCmax;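 also: natural log of median RNA to DNA barcode read ratio; higher means stronger binding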
4H3619-AA = biological target: T1, 4H3619-AA; conditions: mean of both orientations
T1 chain: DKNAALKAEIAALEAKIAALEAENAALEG

4H324-AA = biological target: T2, 4H324-AA; conditions: mean of both orientations
T2 chain: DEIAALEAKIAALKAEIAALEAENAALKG

4H249-AA = biological target: T3, 4H249-AA; conditions: mean of both orientations
T3 chain: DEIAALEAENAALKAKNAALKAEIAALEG

4H341-AA = biological target: T4, 4H341-AA; conditions: mean of both orientations
T4 chain: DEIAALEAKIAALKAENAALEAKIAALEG

4H3974-AA = biological target: T5, 4H3974-AA; conditions: mean of both orientations
T5 chain: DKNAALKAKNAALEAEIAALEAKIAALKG

4H2580-AA = biological target: T6, 4H2580-AA; conditions: mean of both orientations
T6 chain: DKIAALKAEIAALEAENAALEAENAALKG

4H2961-AA = biological target: T7, 4H2961-AA; conditions: mean of both orientations
T7 chain: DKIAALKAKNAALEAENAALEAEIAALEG

4H2621-AA = biological target: T8, 4H2621-AA; conditions: mean of both orientations
T8 chain: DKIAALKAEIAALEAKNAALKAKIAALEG

4H2604-AA = biological target: T9, 4H2604-AA; conditions: mean of both orientations
T9 chain: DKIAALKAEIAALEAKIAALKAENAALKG

4H380-AA = biological target: T10, 4H380-AA; conditions: mean of both orientations
T10 chain: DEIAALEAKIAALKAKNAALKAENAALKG

4H133-AA = biological target: T11, 4H133-AA
T11 chain: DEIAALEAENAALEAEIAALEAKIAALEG

4H1349-AA = biological target: T12, 4H1349-AA; conditions: mean of both orientations
T12 chain: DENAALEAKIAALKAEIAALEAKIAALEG

4H1384-AA = biological target: T13, 4H1384-AA; conditions: mean of both orientations
T13 chain: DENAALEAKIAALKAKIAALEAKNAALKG

4H1449-AA = biological target: T14, 4H1449-AA; conditions: mean of both orientations
T14 chain: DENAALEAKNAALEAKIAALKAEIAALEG

4H3777-AA = biological target: T15, 4H3777-AA; conditions: mean of both orientations
T15 chain: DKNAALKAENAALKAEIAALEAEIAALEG

4H3094-AA = biological target: T16, 4H3094-AA; conditions: mean of both orientations
T16 chain: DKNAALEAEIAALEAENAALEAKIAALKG

4H1878-AA = biological target: T17, 4H1878-AA; conditions: mean of both orientations
T17 chain: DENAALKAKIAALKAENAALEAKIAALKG

4H235-AA = biological target: T18, 4H235-AA; conditions: mean of both orientations
T18 chain: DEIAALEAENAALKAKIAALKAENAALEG

4H63-AA = biological target: T19, 4H63-AA; conditions: mean of both orientations
T19 chain: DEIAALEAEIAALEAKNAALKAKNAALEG

4H2774-AA = biological target: T20, 4H2774-AA; conditions: mean of both orientations
T20 chain: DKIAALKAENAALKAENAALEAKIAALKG

4H2947-AA = biological target: T21, 4H2947-AA
T21 chain: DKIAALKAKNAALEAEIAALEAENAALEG

4H432-AA = biological target: T22, 4H432-AA; conditions: mean of both orientations
T22 chain: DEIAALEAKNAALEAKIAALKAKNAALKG

4H3049-AA = biological target: T23, 4H3049-AA; conditions: mean of both orientations
T23 chain: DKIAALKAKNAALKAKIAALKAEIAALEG

4H2903-AA = biological target: T24, 4H2903-AA; conditions: mean of both orientations
T24 chain: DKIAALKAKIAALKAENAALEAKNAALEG

4H2760-AA = biological target: T25, 4H2760-AA; conditions: mean of both orientations
T25 chain: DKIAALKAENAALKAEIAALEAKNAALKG

4H3629-AA = biological target: T26, 4H3629-AA; conditions: mean of both orientations
T26 chain: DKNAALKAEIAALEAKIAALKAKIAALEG

4H3449-AA = biological target: T27, 4H3449-AA; conditions: mean of both orientations
T27 chain: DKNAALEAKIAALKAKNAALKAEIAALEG

4H3915-AA = biological target: T28, 4H3915-AA; conditions: mean of both orientations
T28 chain: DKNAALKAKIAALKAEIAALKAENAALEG

4H1593-AA = biological target: T29, 4H1593-AA; conditions: mean of both orientations
T29 chain: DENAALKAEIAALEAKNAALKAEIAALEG

4H446-AA = biological target: T30, 4H446-AA; conditions: mean of both orientations
T30 chain: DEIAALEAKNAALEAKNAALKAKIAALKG

4H3631-AA = biological target: T31, 4H3631-AA; conditions: mean of both orientations
T31 chain: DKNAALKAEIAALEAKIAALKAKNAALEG

4H2907-AA = biological target: T32, 4H2907-AA; conditions: mean of both orientations
T32 chain: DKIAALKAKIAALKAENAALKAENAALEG

4H1401-AA = biological target: T33, 4H1401-AA; conditions: mean of both orientations
T33 chain: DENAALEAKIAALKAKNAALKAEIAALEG

4H384-AA = biological target: T34, 4H384-AA; conditions: mean of both orientations
T34 chain: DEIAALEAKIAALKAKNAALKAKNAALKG

4H3697-AA = biological target: T35, 4H3697-AA; conditions: mean of both orientations
T35 chain: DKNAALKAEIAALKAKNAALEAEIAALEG

4H2611-AA = biological target: T36, 4H2611-AA; conditions: mean of both orientations
T36 chain: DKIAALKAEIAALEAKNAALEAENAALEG

4H1845-AA = biological target: T37, 4H1845-AA; conditions: mean of both orientations
T37 chain: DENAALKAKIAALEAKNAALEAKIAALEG

4H3378-AA = biological target: T38, 4H3378-AA
T38 chain: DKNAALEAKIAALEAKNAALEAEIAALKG

4H3133-AA = biological target: T39, 4H3133-AA; conditions: mean of both orientations
T39 chain: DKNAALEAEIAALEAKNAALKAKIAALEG

4H2648-AA = biological target: T40, 4H2648-AA; conditions: mean of both orientations
T40 chain: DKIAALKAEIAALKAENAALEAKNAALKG

4H1310-AA = biological target: T41, 4H1310-AA; conditions: mean of both orientations
T41 chain: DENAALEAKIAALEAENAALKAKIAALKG

4H2198-AA = biological target: T42, 4H2198-AA; conditions: mean of both orientations
T42 chain: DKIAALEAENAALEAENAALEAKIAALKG

4H32-AA = biological target: T43, 4H32-AA; conditions: mean of both orientations
T43 chain: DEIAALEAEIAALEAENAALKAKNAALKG

4H1594-AA = biological target: T44, 4H1594-AA; conditions: mean of both orientations
T44 chain: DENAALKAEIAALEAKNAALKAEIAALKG

4H1513-AA = biological target: T45, 4H1513-AA; conditions: mean of both orientations
T45 chain: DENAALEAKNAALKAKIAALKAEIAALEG

4H340-AA = biological target: T46, 4H340-AA; conditions: mean of both orientations
T46 chain: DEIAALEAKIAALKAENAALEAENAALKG

4H982-AA = biological target: T47, 4H982-AA; conditions: mean of both orientations
T47 chain: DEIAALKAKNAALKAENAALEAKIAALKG

4H1629-AA = biological target: T48, 4H1629-AA; conditions: mean of both orientations
T48 chain: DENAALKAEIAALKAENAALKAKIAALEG

4H3162-AA = biological target: T49, 4H3162-AA; conditions: mean of both orientations
T49 chain: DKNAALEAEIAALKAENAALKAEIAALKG

4H3865-AA = biological target: T50, 4H3865-AA; conditions: mean of both orientations
T50 chain: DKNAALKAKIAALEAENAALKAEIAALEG

4H2553-AA = biological target: T51, 4H2553-AA; conditions: mean of both orientations
T51 chain: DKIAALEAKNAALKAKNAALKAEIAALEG

4H123-AA = biological target: T52, 4H123-AA
T52 chain: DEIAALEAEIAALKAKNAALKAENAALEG

4H1388-AA = biological target: T53, 4H1388-AA; conditions: mean of both orientations
T53 chain: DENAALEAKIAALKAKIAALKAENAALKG

4H3588-AA = biological target: T54, 4H3588-AA; conditions: mean of both orientations
T54 chain: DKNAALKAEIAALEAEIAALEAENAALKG

4H3606-AA = biological target: T55, 4H3606-AA; conditions: mean of both orientations
T55 chain: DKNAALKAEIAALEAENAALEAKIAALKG

4H1351-AA = biological target: T56, 4H1351-AA; conditions: mean of both orientations
T56 chain: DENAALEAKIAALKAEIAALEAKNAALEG

4H1874-AA = biological target: T57, 4H1874-AA; conditions: mean of both orientations
T57 chain: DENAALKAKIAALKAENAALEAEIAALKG

4H697-AA = biological target: T58, 4H697-AA; conditions: mean of both orientations
T58 chain: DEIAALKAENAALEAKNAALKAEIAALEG

4H3056-AA = biological target: T59, 4H3056-AA; conditions: mean of both orientations
T59 chain: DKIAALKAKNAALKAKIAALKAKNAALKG

4H3413-AA = biological target: T60, 4H3413-AA; conditions: mean of both orientations
T60 chain: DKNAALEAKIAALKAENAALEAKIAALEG

4H3718-AA = biological target: T61, 4H3718-AA; conditions: mean of both orientations
T61 chain: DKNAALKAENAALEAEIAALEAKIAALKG

4H2620-AA = biological target: T62, 4H2620-AA; conditions: mean of both orientations
T62 chain: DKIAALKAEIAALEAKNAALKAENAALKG

interaction score (4H3619-AA): -0.325
interaction score (4H324-AA): -0.986
interaction score (4H249-AA): 0.33
interaction score (4H341-AA): -1.11
interaction score (4H3974-AA): 0.688
interaction score (4H2580-AA): -1.27
interaction score (4H2961-AA): -1.33
interaction score (4H2621-AA): 0.704
interaction score (4H2604-AA): -0.647
interaction score (4H380-AA): -1.13
interaction score (4H133-AA): -0.665
interaction score (4H1349-AA): 0.224
interaction score (4H1384-AA): 0.598
interaction score (4H1449-AA): 0.176
interaction score (4H3777-AA): 0.631
interaction score (4H3094-AA): -1.05
interaction score (4H1878-AA): 1.23
interaction score (4H235-AA): 0.197
interaction score (4H63-AA): -1.37
interaction score (4H2774-AA): 0.342
interaction score (4H2947-AA): -0.964
interaction score (4H432-AA): -0.168
interaction score (4H3049-AA): 2.17
interaction score (4H2903-AA): -1.62
interaction score (4H2760-AA): 1.33
interaction score (4H3629-AA): 1.24
interaction score (4H3449-AA): 0.625
interaction score (4H3915-AA): 1.08
interaction score (4H1593-AA): -0.948
interaction score (4H446-AA): 0.854
Binder: DEIAALEAENAALEAEIAALEAKIAALEG [4H133-AA]

interaction score (4H3631-AA): -0.979
interaction score (4H2907-AA): 0.0402
interaction score (4H1401-AA): -1.83
interaction score (4H384-AA): -0.635
interaction score (4H3697-AA): -1.64
interaction score (4H2611-AA): 0.00349
interaction score (4H1845-AA): -1.73
interaction score (4H3378-AA): -1.89
interaction score (4H3133-AA): -2.05
interaction score (4H2648-AA): 2.1
interaction score (4H1310-AA): -2
interaction score (4H2198-AA): -0.461
interaction score (4H32-AA): 1.79
interaction score (4H1594-AA): -1.9
interaction score (4H1513-AA): -1.7
interaction score (4H340-AA): 1.64
interaction score (4H982-AA): -1.15
interaction score (4H1629-AA): -1.79
interaction score (4H3162-AA): -1.32
interaction score (4H3865-AA): -1.93
interaction score (4H2553-AA): -1.8
interaction score (4H123-AA): -1.3
interaction score (4H1388-AA): -0.318
interaction score (4H3588-AA): -0.454
interaction score (4H3606-AA): 1.04
interaction score (4H1351-AA): -0.328
interaction score (4H1874-AA): -0.134
interaction score (4H697-AA): -0.781
interaction score (4H3056-AA): -2.08
interaction score (4H3413-AA): -1.35
interaction score (4H3718-AA): -0.602
interaction score (4H2620-AA): 0.675
Binder: DEIAALEAEIAALKAKNAALKAENAALEG [4H123-AA]
